# Measured values from patent US9090897B2, “Production of IFN-lambda by conventional dendritic cells” (Bavarian Nordic A/S, priority 2009, dated 2015).
# Entries after “also recorded” stand apart in the source; their conditions may differ.
# What was measured:
# [1] = test system: splenic CD8+ cDC; test: In vitro stimulation of sorted splenic CD8+ cDCs, cytokines in supernatant (IFN-λ ELISA, IL-12p70 FlowCytomix); type: cell-based, mouse; conditions: for IFN-λ production in combination with poly IC: stimulus added together with poly IC, IL-3 and GM-CSF, 18 h; for effect of cytokine on IFN-λ production / effect of cytokine on IL-12p70 production: combinatory stimulus poly IC+CpG-1668, cytokine 10 ng/ml
# Excerpt: DC subsets were isolated from pooled mouse spleens as described (Vremec et al., 2007). Briefly, spleens were chopped, digested with collagenase (Worthington Biochemical) and DNase (Roche) at room temperature, and treated with EDTA. Low-density cells were enriched by density centrifugation; non-DC lineage cells were coated with mAbs (anti-CD3, KT3-1.1; anti-Thy-1, T24/31.7; anti Gr-1, 1A8; anti-CD19, ID3; anti-erythrocytes, TER119 and anti-NK cells, DX5) and depleted using anti-rat Ig magnetic beads (Qiagen). Dead cells were excluded by propidium iodide staining. cDC populations were sorted based on the expression of CD11c, CD45RA, CD4, CD8a and CD172a and pDCs were purified based on CD11c, CD45RA, and CD172a (all BD Biosciences) expression. Cell sorting was performed on a FACS Aria instrument (BD Biosciences).
# Cells were stimulated in vitro with single TLR agonists or combinations thereof containing 10 μg/ml Pam3Cys (InvivoGen), 100 μg/ml poly IC (Axxora), 10 μg/ml LPS (E. coli; Sigma-Aldrich or Axxora), 10 μg/ml R848 (Axxora), 1 μM CpG-1668 or CpG-2216 (TIB-Molbiol), 1 μg/ml profilin of toxoplasma (Axxora). The recombinant cytokines mouse-IL-3, mouse-IL-4, rat-IFN-γ (PeproTech) and mouse-GM-CSF (Tebu-Bio) (10 ng/ml each) were added as indicated. The addition of IL-3 and GM-CSF was based on previous observations that GM-CSF promoted the production of IL-12p70 and that the combination of IL-3 and GM-CSF increased virus induced IFN-λ production in pDCs and cDCs (Hochrein et al., 2000; Hochrein et al., 2004). As source of a parapoxvirus Zylexis, which is used for veterinary purposes was purchased from a pharmacy. HSV-1, in replication deficient form known as disc HSV-1 (HSV-1d) was used as described (Hochrein et al., 2004). IFN-λ in supernatants was analyzed by ELISA and IL-12p70 was determined by FlowCytomix bead assay (Bender Medsystems) according to manufacturer's protocol.
# [2] = test system: CD8α+ cDCs; test: In vitro stimulation of FL expanded ex-vivo isolated splenic CD8α+ cDCs, IFN-λ; type: cell-based, mouse; conditions: 5×10^5/ml, IL-3+GM-CSF+IL-4+IFN-γ, 100 μg/ml, 18 h
# Protocol: (§1) FIG. 13 depicts that in vivo FL expanded CD8α+cDCs and eCD8α cDCs selectively produce IFN-λ to poly AU in vitro. Highly purified FL expanded ex-vivo isolated splenic 5×10^5/ml were stimulated in the presence of IL-3+GM-CSF+IL-4+IFN-γ with either poly IC (100 μg/ml) or poly AU (100 μg/ml). After 18 h supernatants were analyzed for IFN-λ.
# (§2) To see if the IFN-λ production to poly AU seen in vivo would correspond with the same cells as in response to poly IC we enhanced the amount of DC in mice with FL treatment and sorted CD8α+ cDCs, eCD8α cDCs and CD11b+/CD172a+cDCs. Those cells were stimulated with poly IC or poly AU.
# [3] = test system: mice; test: In vivo challenge (i.v.), serum IFN-λ and IFN-α by ELISA; set-up: species or system mouse; conditions: for IFN-λ production to poly IC after growth factor treatment: FL-KO mice treated 7 days with 10 μg growth factor per day, then 100 μg poly IC i.v., 3-4 h
# Protocol: Mice were injected i.v. into the lateral tail vein with 100 μg poly IC (Axxora) and serum was collected 3-4 h after challenge. Sera were pre-diluted 1/5, […] was analyzed by ELISA as described (Hochrein et al., 2004). IFN-λ was determined by an IFN-λ3 (IL-28B) ELISA (R&D Systems).
# [4] = test system: eCD8α cDCs; test: In vitro stimulation of FL expanded ex-vivo isolated splenic eCD8α cDCs, IFN-λ; type: cell-based, mouse; conditions: 5×10^5/ml, IL-3+GM-CSF+IL-4+IFN-γ, 100 μg/ml, 18 h
# Protocol: as §1, §2
# [5] = test system: mice; test: In vivo challenge (i.v.), serum IFN-λ and IFN-α by ELISA; set-up: species or system mouse
molecule,measurement,setting,value
CCCCCCCCCCCCCCCC(=O)N[C@@H](CSC[C@@H](COC(=O)CCCCCCCCCCCCCCC)OC(=O)CCCCCCCCCCCCCCC)C(=O)O [Pam3Cys],IFN-λ production in combination with poly IC,[1],synergistically increased IFN-λ production
polyadenylic:polyuridylic acid [poly AU],IFN-λ production,[2],able to produce IFN-λ
same,IFN-λ in the sera,"[3]; mice, 100 or 500 μg i.v., sera after 3-4 h",induces IFN-λ; also recorded: induced IFN-λ in the sera of mice
same,IFN-λ production,[4],able to produce IFN-λ
same,systemic IFN-λ,"[5]; mice, poly AU injection",not detectable
CCOCc1nc2c(N)nc3ccccc3c2n1CC(C)(C)O [R848],IFN-λ production in combination with poly IC,[1],unable to support poly IC induced IFN-λ production
"IFN-γ: recombinant cytokine rat-IFN-γ (protein, UniProt P01581 23-156, looked up) Interferon gamma: QGTLIESLESLKNYFNSSSMDAMEGKSLLLDIWRNWQKDGNTKILESQIISFYLRLFEVLKDNQAISNNISVIESHLITNFFSNSKAKKDAFMSIAKFEVNNPQIQHKAVNELIRVIHQLSPESSLRKRKRSRC",effect of cytokine on IFN-λ production,[1],enhanced the production of IFN-λ
same,effect of cytokine on IL-12p70 production,[1],little effects on IL-12p70 production
"IL-4: recombinant cytokine mouse-IL-4 (protein, UniProt P07750 21-140, looked up) Interleukin-4: HIHGCDKNHLREIIGILNEVTGEGTPCTEMDVPNVLTATKNTTESELVCRASKVLRIFYLKHGKTPCLKKNSSVLMELQRLFRAFRCLDSSISCTMNESKSTSLKDFLESLKSIMQMDYS",effect of cytokine on IFN-λ production,[1],not IFN-λ production
same,effect of cytokine on IL-12p70 production,[1],increased IL-12p70
"FL: Fms-related tyrosine kinase 3 ligand, growth factor involved in development of DCs (protein, UniProt P49771 27-235, looked up) Fms-related tyrosine kinase 3 …: TQDCSFQHSPISSDFAVKIRELSDYLLQDYPVTVASNLQDEELCGGLWRLVLAQRWMERLKTVAGSKMQGLLERVNTEIHFVTKCAFQPPPSCLRFVQTNISRLLQETSEQLVALKPWITRQNFSRCLELQCQPDSSTLPPPWSPRPLEATAPTAPQPPLLLLLLLPVGLLLLAAAWCLHWQRTRRRTPRPGEQVPPVPSPQDLLLVEH",IFN-λ production to poly IC after growth factor treatment,[3],"not only restored, but even increased, their IFN-λ producing capacity above WT level"
same,systemic IFN-λ response to poly IC challenge after growth factor treatment,[5]; FL treated WT mice,greatly increased systemic IFN-λ response
"M-CSF: M-CSF receptor ligand, growth factor (protein, UniProt P09603 33-554, looked up) Macrophage colony-stimulating …: EEVSEYCSHMIGSGHLQSLQRLIDSQMETSCQITFEFVDQEQLKDPVCYLKKAFLLVQDIMEDTMRFRDNTPNAIAIVQLQELSLRLKSCFTKDYEEHDKACVRTFYETPLQLLEKVKNVFNETKNLLDKDWNIFSKNCNNSFAECSSQDVVTKPDCNCLYPKAIPSSDPASVSPHQPLAPSMAPVAGLTWEDSEGTEGSSLLPGEQPLHTVDPGSAKQRPPRSTCQSFEPPETPVVKDSTIGGSPQPRPSVGAFNPGMEDILDSAMGTNWVPEEASGEASEIPVPQGTELSPSRPGGGSMQTEPARPSNFLSASSPLPASAKGQQPADVTGTALPRVGPVRPTGQDWNHTPQKTDHPSALLRDPPEPGSPRISSLRPQGLSNPSTLSAQPQLSRSHSSGSVLPLGELEGRRSTRDRRSPAEPEGGPASEGAARPLPRFNSVPLTDTGHERQSEGSFSPQLQESVFHLLVPSVILVLLAVGGLLFYRWRRRSHQEPQRADSPLEQPEGSPLTQDDRQVELPV",IFN-λ production to poly IC after growth factor treatment,[3],able to increase IFN-λ production to poly IC
